{
  "source": "paper PMC4889959",
  "about": "(Nucleic Acids Research, 2016)",
  "proteins": {"B1": {"name": "Human SLX4BTB (residues 660–795) (domain or fragment, UniProt Q8IY92 660-795, looked up)", "chain": "QDKHPDRGGRTLLSLGLLVADFGAMVNNPHLSDVQFQTDSGEVLYAHKFVLYARCPLLIQYVNNEGFSAVEDGVLTQRVLLGDVSTEAARTFLHYLYTADTGLPPGLSSELSSLAHRFGVSELVHLCEQVPIATDS"}},
  "target": "the molecule itself",
  "experiment": "SEC; 2 mg of protein (20 mg/ml) on a calibrated Superdex 75 column (120 ml), 25 mM pH 8.0 Tris-HCl, 150 mM NaCl, 2 mM DTT",
  "data": [
    {"protein": "B1", "values": [
      {"measurement": "stoichiometry N", "value": 2}
    ]}
  ]
}
